The text below walks through data of patent US6833192B1, “Encapsulation of crystals via multilayer coatings” (Max-Planck Gesellschaft Zur Forderrung der Wissenschaften …, priority 1999, dated 2004).

The test system of series [1] is protease (Streptomyces griseus). The experiment in a line: Proteolysis experiment (decrease in catalase enzyme activity on protease incubation). The class given is biochemical. The conditions noted are these: incubation time of 100 min, 37° C., pH 7; starting activity normalized to 100%. As to the method:
10 mg of protease (Streptomyces griseus; Sigma P6911; activity=5.2 U/mg solid) was dissolved in 500 μl of phosphate buffered saline (PBS, pH 7.0)(100 U/ml) and used as the stock solution. 200 μl samples of the polyelectrolyte-coated catalase and solubilized catalase where separately incubated in a water bath at 37° C. with either 30 μl of the stock protease solution of 30 μl of PBS (control experiment). The starting activity of the catalase for all samples was approximately 12000 U/ml catalase. The starting activities were normalized to 100%. The final protease activity in the sample was […]. Proteolysis of the catalase was determined by measuring the decrease in the catalase enzyme activity. The catalase activity measurements where carried out according to the previously described method (i.e. by spectrophotometric detection (240 nm) of the decomposition of hydrogen peroxide, see Tijsen, Practice and Theory of Enzyme Immunoassays, Elsevier, 8th Impression (1993), pp. 202-203.15). 5 μl samples were diluted and used for the activity measurements.

Series [2] can be described thus: Electrophoretic mobility / Zeta-potential measurement. The class given is physicochemical. Particulars: water at pH 5; by electrophoretic mobility. As to the method:
Electrophoretic mobilities of the uncoated and polymer-multilayer coated enzyme crystals were measured using a Malvern Zetasizer 4 as described elsewhere (Caruso et al., J. Phys. Chem. B 102, 2011-2116 (1998); Sukhorukov, G. B. et al., Polym. Adv. Technol. 9, 759-767 (1998); Donath et al., Angew. Chem. Int. Ed. 37, 2201-2205 (1998). The mobility u was converted into a ξ-potential using the Smoluchowski relation ξ=uη/ε, where η and ε are the viscosity and permittivity of the solution, respectively. Atomic force microscopy (AFM) images were obtained using a Digital Instruments Nanoscope IIIa AFM in tapping mode (TM) on samples deposited onto cleaned glass slides and air-dried. Samples for transmission electron microscopy (TEM) were prepared by deposition of aqueous solutions of the hollow polymer capsules upon a carbon-coated copper grid, allowing them to air dry for one minute, and then blotting off the extra solution.

Series [3] is described as follows: Determination of catalase activity (decomposition of H2O2 at 240 nm). The class given is biochemical. The conditions noted are these: after solubilization and release from the polymer capsules; uncoated catalase measured the same way for comparison. As to the method:
The enzyme was released from the polymer capsules by exposure to ultrasound for 5 min at 20° C. in 1 M phosphate buffer at pH 7 (this caused rupturing of the polymer walls). The catalase activity was determined using a standard enzyme activity assay (Biochemica Information, 15-16 Boehringer Mannheim (1987); Tijsen, Practice and Theory of Enzyme Immunoassays, 8th Impression (1993), Elsevier, 202-203): that is, by measuring the decomposition of the substrate hydrogen peroxide (H2O2) at 240 nm. The concentration of the catalase was determined spectrophotometrically at 280 nm and 405 nm (soret band). The specific acitvity of the uncoated catalase was measured in the same way and used for comparison.

A value given as a limit tells only on which side of the number the result lay.

B1: catalase (protein, UniProt P00432 2-527, looked up)
Catalase: ADNRDPASDQMKHWKEQRAAQKPDVLTTGGGNPVGDKLNSLTVGPRGPLLVQDVVFTDEMAHFDRERIPERVVHAKGAGAFGYFEVTHDITRYSKAKVFEHIGKRTPIAVRFSTVAGESGSADTVRDPRGFAVKFYTEDGNWDLVGNNTPIFFIRDALLFPSFIHSQKRNPQTHLKDPDMVWDFWSLRPESLHQVSFLFSDRGIPDGHRHMNGYGSHTFKLVNANGEAVYCKFHYKTDQGIKNLSVEDAARLAHEDPDYGLRDLFNAIATGNYPSWTLYIQVMTFSEAEIFPFNPFDLTKVWPHGDYPLIPVGKLVLNRNPVNYFAEVEQLAFDPSNMPPGIEPSPDKMLQGRLFAYPDTHRHRLGPNYLQIPVNCPYRARVANYQRDGPMCMMDNQGGAPNYYPNSFSAPEHQPSALEHRTHFSGDVQRFNSANDDNVTQVRTFYLKVLNEEQRKRLCENIAGHLKDAQLFIQKKAVKNFSDVHPEYGSRIQALLDKYNEEKPKNAVHTYVQHGSHLSAREKANL
modifications: crystals
notes: catalase enzyme crystals (Sigma, C-100), uncoated template and comparison
In series [1], B1 displayed an inactivation by protease greater than 90%. The “Zeta potential (surface charge)” value in series [2] is recorded as “+20 mV”. This molecule also showed a recovered specific activity in series [3] of 100%.
